Assay results as given in patent US20230040568A1 (ALBERT EINSTEIN COLLEGE OF MEDICINE, published 2023).

Tests used:
[1] = biological target: T1, KIR3DL1 expressed on 3T3 cells (UniProt P43629 22-444, limits assumed); assay: FACS, HHLA2-Ig staining of 3T3 cells expressing KIR3DL1 (FIG. 2A)
T1 construct: whole, on cells
Source text: (§1) FIG. 2A depicts histograms of 3T3 cell lines expressing KIR3DL1, KIR3DL2, or KIR3DL3 stained with HHLA2-Ig fusion polypeptide (open histograms) or control Ig (shaded histograms). FIG. 2B depicts a plot showing results of an intercellular conjugate assay that indicate 3T3 cell line expressing HHLA2 bound to 3T3 cell line expressing KIR3DL3, but not the control 3T3 cell line. FIG. 2C depicts histograms of a 3T3 cell line expressing HHLA2 bound by the DO domain (red) and the whole extracellular portion (red) of KIR3DL3.
(§2) Subsequent studies reported that HHLA2 is over-expressed in various types of human cancers (Cheng 2018; Cheng 2017; Koirala 2016; Janakiram 2015). To test the binding of HHLA2 to KIR3DL1, KIR3DL2, and KIR3DL3, 3T3 cell lines stable expressing cell surface KIR3DL1, KIR3DL2, or KIR3DL3 were generated.

[2] = biological target: T2, KIR3DL3 expressed on cells (3T3 cell line expressing KIR3DL3); KIR3DL3+ NK92 cells; primary KIR3DL3+ NK cells … (human, UniProt Q8N743 26-410); assay: FACS, HHLA2-Ig staining of 3T3 cells expressing KIR3DL3 (FIG. 2A)
T2 construct: also called KIR3DL3-expressing 3T3 cells; KIR3DL3 WT
T2 sequence (Q8N743 26-410 H321N): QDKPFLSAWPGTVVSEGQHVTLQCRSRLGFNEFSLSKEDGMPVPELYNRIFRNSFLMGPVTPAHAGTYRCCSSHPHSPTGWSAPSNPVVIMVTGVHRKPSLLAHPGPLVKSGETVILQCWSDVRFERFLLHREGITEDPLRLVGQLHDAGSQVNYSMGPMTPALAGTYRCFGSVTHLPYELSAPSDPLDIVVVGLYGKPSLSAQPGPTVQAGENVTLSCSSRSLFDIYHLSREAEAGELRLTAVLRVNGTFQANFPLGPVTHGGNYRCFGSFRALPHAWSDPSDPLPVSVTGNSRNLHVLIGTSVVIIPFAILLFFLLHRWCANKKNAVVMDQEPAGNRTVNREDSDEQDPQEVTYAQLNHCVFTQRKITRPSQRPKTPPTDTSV
Source text: as §1, §2

[3] = biological target: T3, KIR3DL2 expressed on 3T3 cells (UniProt P43630 22-455, limits assumed); assay: FACS, HHLA2-Ig staining of 3T3 cells expressing KIR3DL2 (FIG. 2A)
T3 construct: whole, on cells
T3 sequence (P43630 22-455 limits assumed): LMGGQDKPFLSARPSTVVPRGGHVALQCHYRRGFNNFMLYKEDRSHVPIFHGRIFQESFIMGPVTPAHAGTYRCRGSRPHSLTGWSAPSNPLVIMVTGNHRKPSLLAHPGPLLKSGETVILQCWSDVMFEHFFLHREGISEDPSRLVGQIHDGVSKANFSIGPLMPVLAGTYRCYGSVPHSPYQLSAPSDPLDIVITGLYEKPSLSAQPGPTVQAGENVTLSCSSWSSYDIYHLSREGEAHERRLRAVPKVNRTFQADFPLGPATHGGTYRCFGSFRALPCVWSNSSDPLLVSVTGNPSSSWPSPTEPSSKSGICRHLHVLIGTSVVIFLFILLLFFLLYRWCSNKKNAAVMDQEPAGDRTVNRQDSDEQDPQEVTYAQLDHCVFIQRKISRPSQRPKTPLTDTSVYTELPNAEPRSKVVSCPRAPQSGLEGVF
Source text: as §1, §2

T1 sequence (P43629 22-444 limits assumed): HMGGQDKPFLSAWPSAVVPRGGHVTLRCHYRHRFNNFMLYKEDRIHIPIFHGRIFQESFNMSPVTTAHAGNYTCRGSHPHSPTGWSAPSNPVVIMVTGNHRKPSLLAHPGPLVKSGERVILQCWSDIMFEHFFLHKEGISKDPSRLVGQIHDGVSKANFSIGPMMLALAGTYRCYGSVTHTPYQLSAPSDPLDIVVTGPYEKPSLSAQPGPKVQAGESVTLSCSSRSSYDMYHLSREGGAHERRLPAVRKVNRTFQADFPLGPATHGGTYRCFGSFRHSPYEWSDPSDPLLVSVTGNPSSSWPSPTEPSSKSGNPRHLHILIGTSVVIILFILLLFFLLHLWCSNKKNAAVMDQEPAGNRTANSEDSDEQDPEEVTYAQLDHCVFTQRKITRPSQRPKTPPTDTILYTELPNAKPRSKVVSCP

B1: HHLA2-Ig fusion polypeptide (Fc fusion, UniProt Q9UM44 23-344, looked up)
chain: IFPLAFFIYVPMNEQIVIGRLDEDIILPSSFERGSEVVIHWKYQDSYKVHSYYKGSDHLESQDPRYANRTSLFYNEIQNGNASLFFRRVSLLDEGIYTCYVGTAIQVITNKVVLKVGVFLTPVMKYEKRNTNSFLICSVLSVYPRPIITWKMDNTPISENNMEETGSLDSFSINSPLNITGSNSSYECTIENSLLKQTWTGRWTMKDGLHKMQSEHVSLSCQPVNDYFSPNQDFKVTWSRMKSGTFSVLAYYLSSSQNTIINESRFSWNKELINQSDFSMNLMDLNLSDSGEYLCNISSDEYTLLTIHTVHVEPSQETASHN
notes: also called HHLA2 protein; not shown: Ig part
binding result [1]: no binding | binding result [2]: binds | binding result [3]: no binding
